Test results taken from patent US9138467.

How the values were obtained:
[1] = biological target: M. gallisepticum affinity purified antigen; assay: lectin affinity chromatography, protein in eluate (about 1.5 mg loaded)
[2] = biological target: M. gallisepticum affinity purified antigen; assay: lectin affinity chromatography, protein in eluate as percent of load

## Concanavalin A (immobilized Con A column) (from UniProt P02866 30-281)
[1]
  Total protein (mg) eluted from Con A column: 0.088 mg
[2]
  % recovery in Con A elution: 5.7%
